Data on 16 sequences can be found in the DeepSol protein solubility set.

This series can be described thus: soluble on expression in E. coli; label from the status in PepcDB or PDB records.
Consider “MARLLMIPGPTPVDPEVLLAMARPVISHTSPDFDEIHGETVSMLQKLFRTSGKVFLLPGSGSLGMEFAVRSVAGRGSRALVLKAGYFGGYFERILRSLGASVTVVESPVGRGFTGADVEEALDRAGDVDVVFVQHVETSTSVANPVREIAGVVKKNGARLVVDGIASVGGMDLRLDEWGVDVALTGSQKALSTPPGLAIVAFSSEYSVELEKREPSGIYFDFLSLSREMESTRNYHITPAVNLVFALNASLKRILGEGLENRFERHRVLARAFTRAMEALGLRLVAEEPFRAWTVTAVYLPQGIDWSRFYSVMRKRGVEVAGGLGGLKGKIFRVGHMGEVDANDLIATIAAIERSLVELGYREARLGQGLEAAQKELSSLGL”, for which the “soluble on expression in E. coli” value was “soluble”.

For “MGSDKIHHHHHHMINQLMRSVDNLPAFPVTVIKVMDLLSRDDYSIAEVARVISFDQSITANILKVSNSAYFSFGRPIRTVLEAVARLGKENVIRAVQTAGISKFYKTTARGYVSVAADLWEHSVAVALMSQILSRRIYGREDSVLYSAALLHDVGKIIIGAYVYESLEKIQRVVDGRKCSFIEAEEEVIGINHAELGGKITGYWNLPEEICDAIAFHHRPDILDKNSVDMQWIVYLADQLCMMTGIGNGIDGLAYLGISEVLKKFNLREKDLETNMMNLMDDLRNARSILDMV”, the “soluble on expression in E. coli” value is reported as “not soluble”.

In the case of “MSAIDCIITAAGLSSRMGQWKMMLPWEQGTILDTSIKNALQFCSRIILVTGYRGNELHERYANQSNITIIHNPDYAQGLLTSVKAAVPAVQTEHCFLTHGDMPTLTIDIFRKIWSLRNDGAILPLHNGIPGHPILVSKPCLMQAIQRPNVTNMRQALLMGDHYSVEIENAEIILDIDTPDDFITAKERYTEILEHHHHHH”, the “soluble on expression in E. coli” value is recorded as “soluble”. As to “MTESYDVVVVGGGPVGLATAWQVAERGHRVLVLERHTFFNENGGTSGAERHWRLQYTQEDLFRLTLETLPLWRALESRCERRLIHEIGSLWFGDTDVVTNEGQISGTAAMMDKLSVRYEWLKATDIERRFGFRGLPRDYEGFLQPDGGTIDVRGTLAALFTLAQAAGATLRAGETVTELVPDADGVSVTTDRGTYRAGKVVLACGPYTNDLLEPLGARLAYSVYEMAIAAYRQATPVTEAPFWFAFQQPTPQDTNLFFGFGHNPWAPGEFVRCGPDFEVDPLDHPSAATGVADRRQMDRLSGWLRDHLPTVDPDPVRTSTCLAVLPTDPERQFFLGTARDLMTHGEKLVVYGAGWAFKFVPLFGRICADLAVEDSTAYDISRLAPQSALLEHHHHHH”, the “soluble on expression in E. coli” value is “soluble”. With “SLGFIMKLTKTALCTALFATFTFSANAQTYPDLPVGIKGGTGALIGDTVYVGLGSGGDKFYTLDLKDPSAQWKEIATFPGGERNQPVAAAVDGKLYVFGGLQKNEKGELQLVNDAYRYNPSDNTWMKLPTRSPRGLVGSSGASHGDKVYILGGSNLSIFNGFFQDTVAAGEDKAKKDEIAAAYFDQRPEDYFFTTELLSYEPSTNKWRNEGRIPFSGRAGAAFTIQGNELVVVNGEIKPGLRTAETHQGKFTAKGVQWKNLPDLPAPKGKSQDGLAGALSGYSNGHYLVTGGANFPGSIKQFKEGKLHAHKGLSKAWHNEVYTLNNGKWRIVGELPMNIGYGFSVSYNNKVLLIGGETDGGKALTSVKAISYDGKKLTIE”, the “soluble on expression in E. coli” value is given as “not soluble”.

With “MDYSEIMVRHGELSTKGKNRMRFINKLKNNIQDVLAPFPAITVRSDRDRTHVSLNGTDYQPIVEALKLVFGVQALSPVYKLEKSVPLLVTAVQDIMTSLYRDGLTFKIATKRSDHAFELDSRELNSLLGGAVFEVLPNIQAQMKHPDVTLKVEIRDEAAYISYEEIKGAGGLPVGTSGKGMLMLSGGIDSPVAGYLALKRGLDIEVVHFASPPYTSPGALAKAQDLTRRLTRFGGNIQFIEVPFTEIQEEIKNKAPEAYLMTLTRRFMMRITDAIREQRKGLVIVNGESLGQVASQTLESMQAINAVTSTPIIRPVVTMDKLEIIEMAQAIDTFDISIQPFEDCCTIFAPDRPKTNPKLGNAEKYEECFDIDGLVQRAVSGIVVTEITPEIVNDEVENLIDALL”, the “soluble on expression in E. coli” value was “not soluble”. For “MSLAAELLIATGEYAPWTGEQLPDGGYVNRVVREAFAREGVQVRFAYMPWARALEALRNGNAQASSFWYDDPVKAKEFLYSAPISEHRELLFHRKDVTVPPWRKLRDLRGLRFGATHGYTYTAEFRQLMKQGALNVEEANDDKINLLKMLAGRIELFPLDEFTGWQLLTSDAFPRGAHDLVTTEARPFSIQYGHLLMPRSARNEQLMARFNAGLARLRADGTLERFRLDLYRGSGMGEGHHHHHH”, the “soluble on expression in E. coli” value is reported as “soluble”. For the sequence “MGSDKIHHHHHHMMTYYFIADLHLNESQPQITHQFLQFMQQKAPLAQAVYILGDFFDFWIGDDEQSVLISQVKLALKKLTASGVKCYFICGNRDFLLGQTFAQQTGIQLLADYHLLDLFGERTLLCHGDTLCIDDIKYQQFRRRVHQKRLQKLFLWLPLTLRIKIAQKIRRKSKQDKKNKSADIMDVNQAFTAQKVHQYGATHLIHGHTHRQAVHFEQNFTRIVLGDWRPDRSSILKVDEKGFEFL”, the “soluble on expression in E. coli” value is reported as “not soluble”. For the sequence “MHYSDHFHKVCIASELNEFTDAFRIIYSWLFSLKLLEPKFMDKDSIFCRLFTSIHFRLKYIAAPHYEERKRHLETLEKDGVPKAYIREYAEQQLNVIKQFKLEQKPIGHSFSTDEIIDAARCFGELSNGISVRSRYQRFRAVCMSWFSFMEVITGKDKSYPGSNYVDMFCEWHLTSKGSSVGATVHICQELDRFFAYINSKSVTINLLTAACIDGYIETYQSACFARKTVASKVSILRTFLRYLYNRSIIKTDMSSYLISPRIYTCEILSVSPNENDLNRISHFYDGNTPSAIRNKAILLLLIEYGMRSGGSYRFKT”, the “soluble on expression in E. coli” value is “not soluble”. For the sequence “MKKETLYVAFSTQKGGVGKTTFTVLVASYLYYLKGYNVAVVDCDYPQHSISAMRKRDAEQVNGDDYYKQLAFSQFKTLGKKAYPVLCSSPDEAIKTADEFLASAGSDYDVVFFDLPGTVNSEGVINSLSGVDYIFTPIAADRVVLESSLSFAVAINKLLVKNEACRLKGLHLFWNMVDGREKTDLYTLYEQTIGELELPLMKVFIPDTKRFKKELDAQRKTVFRSTLFPADKRLVKGSNIEELITEIAYLIKL”, the “soluble on expression in E. coli” value is listed as “soluble”.

For “GTEVEIPVVHDPKGEAVLPSVFEDGTRQGWDWAGESGVKTALTIEEANGSNALSWEFGYPEVKPSDNWATAPRLDFWKSDLVRGENDYVTFDFYLDPVRATEGAMNINLVFQPPTNGYWVQAPKTYTINFDELEEANQVNGLYHYEVKINVRDITNIQDDTLLRNMMIIFADVESDFAGRVFVDNVRFEGA”, the “soluble on expression in E. coli” value was “soluble”.

Consider “MGSDKIHHHHHHMKYRTVFDIIGPVMIGPSSSHTAGAARIGRVARTLFGQQPERCDIYFYGSFAETYKGHGTDVAIVGGILDFDTFDPRIPRSLQLAKEKGVRVYFHEEEAITDHPNTAKVVLQKGEDQLEVVGVSIGGGKIEIVELNGFHLKLSGNHPAILVVHTDRFGVIASVSNMLAKHEINIGHMEVSRKEKGKEALMVIEVDQNVDDLLLQELERLPNIVTVTKIHD”, for which the “soluble on expression in E. coli” value was “not soluble”.

In the case of “MTYVFGPVSSKRLGQSLGVDLLPSKSCTWNCIYCQLGRTTAFVTERREFFPKEEILSEILETVASGKPIDWITFVGSGETTLYKGLDWLIAEVKKISKIPVAVITNGSLLSDPEVRRELLEADAVLPSLNAGSPELFERIDRPAPGFTFEKHVEGLRLFRQEYRGKLWVEVMLIRGVNDSEEALKEMAAVLAEIRPDMIHLVMPTRPAPESFVGIPDEELIQRAVFVLSSSAPVLHPAKGEMNLGSVGNLLDTVAGIASRHPVQERELEAALGKLFDGDAAKIRETMGELLASGRFEKVRQGSELYWIVKSA”, the “soluble on expression in E. coli” value was “not soluble”.

Take “MAENKQASEGLAEDLIRSMVQTASIELHLKTLVEKRQSEMDNGLIDTNDFNRVNEQIDVLKNLKEELFEVTEQRRQDMRTLFDLFEGKGDKEQWCIVKHAAMAMYTAFEAWQASDNDRLLYQICIEKNAYFIKKITQFTGVPITECASCFSDMMKGAIDDEG”: the “soluble on expression in E. coli” value is listed as “not soluble”. For “MRILVLGVGNILLTDEAIGVRIVEALEQRYILPDYVEILDGGTAGMELLGDMANRDHLIIADAIVSKKNAPGTMMILRDEEVPALFTNKISPHQLGLADVLSALRFTGEFPKKLTLVGVIPESLEPHIGLTPTVEAMIEPALEQVLAALRESGVEAIPRSDS”, the “soluble on expression in E. coli” value is on record as “soluble”. Take “GVTKEIRIPTLEECDVCHGSGAKPGTQPQTCPTCHGSGQVQMRQGFFAVQQTCPHCQGRGTLIKDPCNKCHGHGRVERS”: the “soluble on expression in E. coli” value is reported as “soluble”.
